The source of these data is patent US20240216513A1, “FATTY ACID-BIFUNCTIONAL DEGRADER CONJUGATES AND THEIR METHODS OF USE” (Novartis AG, priority 2021, published 2024).

A short description of data set [1]: BTK FAC plasma stability assay, PBS buffer arm. As to conditions: for Plasma stability (h) PBS: incubation to 24 h. The class given is physicochemical. Here is the method:
(§1) Plasma stability was conducted in Dulbecco's PBS buffer, mouse plasma, rat plasma or human plasma frozen with K3-EDTA from BiolVT). Thawed plasma was centrifuged prior to warming for 5 minutes at 37° C. Working solutions were prepared from 10 mM DMSO solution to 500 µM in acetonitrile:water (1:1); 2 µL of working solution was added to 198 µL blank plasma or PBS and mixed manually. 4×45 µL of spiked matrix was aliquoted into glass incubation plates (96-well DW glass microplate) and sealed with blue silicon/PTFE seal; then incubated on a Thermo shaker (38° C. 300 RPM). Samples were prepared at 0, 2, 6 and 24 h timepoints, by protein precipitation with chilled acetonitrile containing internal standard Glyburide (0.2 µM). Precipitated samples were shaken for 10 minutes and stored at 4° C. until completion of the study. Following precipitation of the terminal sample, samples were frozen at −80° C. for 1 hour. Samples were then thawed prior to centrifugation (20 minutes, 4500 RPM at 4° C.). 50 µL of supernatant of each sample was transferred to 384 well analysis plate containing 30 µL of water. Semi quantitative analysis (analyte: internal standard peak area ratio) was performed by LC-MS/MS using a Sciex QTrap 5500.

Data set [2] in a line: BTK FAC plasma stability assay, rat plasma. The class given is in vitro ADME. As to conditions: for Plasma stability (h) rat: incubation to 24 h. The method, then:
as §1

Data set [3] can be described thus: BTK FAC plasma stability assay, dog plasma. Format: in vitro ADME.
Data set [4] is described as follows: BTK FAC plasma stability assay, mouse plasma. Format: in vitro ADME. As to conditions: for Plasma stability (h) mouse: incubation to 24 h. The method, then: as §1
Data set [5] is described as follows: BTK FAC plasma stability assay, cyno plasma. The class given is in vitro ADME, cynomolgus monkey.

For the compound `CCCCCCCCCCCN(C(=O)CCCCCCCCCC(=O)O)C(CCC(=O)NCCOCCOCCOCCOCCOCCOCCOCCOCCOCCOCCOCCOCCC(=O)NCc1ccc(C(=O)OC(C)(C)c2ccc(C(=O)Nc3cc(F)cc(-c4ncnc5[nH]c(-c6ccc(CCN7CCC8(CC7)CCN(C(=O)c7ccc(OC)c(N9CCC(=O)NC9=O)c7)CC8)cc6)cc45)c3C)c(F)c2)cc1)C(=O)O` (stereo not shown) [Example A14, 46-Carboxy-1-(4-(((2-(4-((3-(6-(4-(2-(9-(3-(2,4-dioxotetrahydropyrimidin-1(2H)-yl)-4-methoxybenzoyl)-3,9-diazaspiro[5.5]undecan-3-yl)ethyl)phenyl)-7H-pyrrolo[2,3-d]pyrimidin-4-yl)-5-fluoro-2-methylphenyl)carbamoyl)-3-fluorophenyl)propan-2-yl)oxy)carbonyl)phenyl)-3,43,48-trioxo-47-undecyl-6,9,12,15,18,21,24,27,30,33,36,39-dodecaoxa-2,42,47-triazaoctapentacontan-58-oic acid], in data set [1], the “% Release of degrader after 24 h PBS” value is listed as 0.2% and the “Plasma stability (h) PBS” value is over 48 h. Further, in data set [2], the “% Release of degrader after 24 h rat” value was 0.3% and the “Plasma stability (h) rat” value is recorded as over 48 h. Besides, in data set [3], the “Plasma stability (h) dog” value is listed as over 48 h and the “% Release of degrader after 24 h dog” value amounted to 0.1%. Also, in data set [4], the “% Release of degrader after 24 h mouse” value turned out to be 9.5% and the “Plasma stability (h) mouse” value is over 48 h. Besides, in data set [5], the “Plasma stability (h) cyno” value was over 48 h and the “% Release of degrader after 24 h cyno” value came to 0.2%.
In the case of `CCCCCCCCCCCN(C(=O)CCCCCCCCCC(=O)O)C(CCC(=O)NCCOCCOCCOCCOCCOCCOCCOCCOCCOCCOCCOCCOCCC(=O)N1CCN(CC(=O)OC(C)(C)c2ccc(C(=O)Nc3cc(F)cc(-c4ncnc5[nH]c(-c6ccc(CCN7CCC8(CC7)CCN(C(=O)c7ccc(OC)c(N9CCC(=O)NC9=O)c7)CC8)cc6)cc45)c3C)c(F)c2)CC1)C(=O)O` (stereo not shown) [Example A22, 44-Carboxy-1-(4-(2-((2-(4-((3-(6-(4-(2-(9-(3-(2,4-dioxotetrahydropyrimidin-1(2H)-yl)-4-methoxybenzoyl)-3,9-diazaspiro[5.5]undecan-3-yl)ethyl)phenyl)-7H-pyrrolo[2,3-d]pyrimidin-4-yl)-5-fluoro-2-methylphenyl)carbamoyl)-3-fluorophenyl)propan-2-yl)oxy)-2-oxoethyl)piperazin-1-yl)-1,41,46-trioxo-45-undecyl-4,7,10,13,16,19,22,25,28,31,34,37-dodecaoxa-40,45-diazahexapentacontan-56-oic acid], in data set [1], the “% Release of degrader after 24 h PBS” value is listed as 1.3% and the “Plasma stability (h) PBS” value is on record as over 48 h. Also, in data set [2], the “% Release of degrader after 24 h rat” value stood at 1.4% and the “Plasma stability (h) rat” value is given as over 48 h. Also, in data set [3], the “Plasma stability (h) dog” value is over 48 h and the “% Release of degrader after 24 h dog” value is on record as 1.6%. In addition, in data set [4], the “% Release of degrader after 24 h mouse” value is given as 2.3% and the “Plasma stability (h) mouse” value is given as over 48 h. Moreover, in data set [5], the “Plasma stability (h) cyno” value is recorded as over 48 h and the “% Release of degrader after 24 h cyno” value is listed as 1.2%.
`CCCCCCCCCCCN(C(=O)CCCCCCCCCC(=O)O)C(CCC(=O)NCCOCCOCCOCCOCCOCCOCCOCCOCCOCCOCCOCCOCCC(=O)NCc1ccc(C(=O)OC(C)(C)c2ccc(C(=O)Nc3cc(F)cc(-c4ncnc5[nH]c(-c6ccc(CCN7CCC8(CC7)CCN(C(=O)c7ccc(OC)c(N9CCC(=O)NC9=O)c7)CC8)cc6)cc45)c3C)c(F)c2)cn1)C(=O)O` (stereo not shown) [Example A25, 46-Carboxy-1-(5-(((2-(4-((3-(6-(4-(2-(9-(3-(2,4-dioxotetrahydropyrimidin-1(2H)-yl)-4-methoxybenzoyl)-3,9-diazaspiro[5.5]undecan-3-yl)ethyl)phenyl)-7H-pyrrolo[2,3-d]pyrimidin-4-yl)-5-fluoro-2-methylphenyl)carbamoyl)-3-fluorophenyl)propan-2-yl)oxy)carbonyl)pyridin-2-yl)-3,43,48-trioxo-47-undecyl-6,9,12,15,18,21,24,27,30,33,36,39-dodecaoxa-2,42,47-triazaoctapentacontan-58-oic acid]: in data set [1], the “% Release of degrader after 24 h PBS” value came to 2.2% and the “Plasma stability (h) PBS” value is reported as over 48 h. Further, in data set [2], the “% Release of degrader after 24 h rat” value is reported as 1.5% and the “Plasma stability (h) rat” value turned out to be 35.7 h. In data set [3], the “Plasma stability (h) dog” value is over 48 h and the “% Release of degrader after 24 h dog” value was determined as 1.1%. In data set [4], the “% Release of degrader after 24 h mouse” value worked out at 20.9% and the “Plasma stability (h) mouse” value amounted to 17.8 h. Further, in data set [5], the “Plasma stability (h) cyno” value was over 48 h and the “% Release of degrader after 24 h cyno” value was 1.1%.
For `CCCCCCCCCCCN(C(=O)CCCCCCCCCC(=O)O)[C@@H](CCC(=O)NCCOCCOCCOCCOCCOCCOCCOCCOCCOCCOCCOCCOCCC(=O)NCCCC(=O)OC(C)(C)c1ccc(C(=O)Nc2cc(F)cc(-c3ncnc4[nH]c(-c5ccc(CCN6CCC7(CC6)CCN(C(=O)c6ccc(OC)c(N8CCC(=O)NC8=O)c6)CC7)cc5)cc34)c2C)c(F)c1)C(=O)O` [Example A27, (S)-52-Carboxy-2-(4-((3-(6-(4-(2-(9-(3-(2,4-dioxotetrahydropyrimidin-1(2H)-yl)-4-methoxybenzoyl)-3,9-diazaspiro[5.5]undecan-3-yl)ethyl)phenyl)-7H-pyrrolo[2,3-d]pyrimidin-4-yl)-5-fluoro-2-methylphenyl)carbamoyl)-3-fluorophenyl)-2-methyl-4,9,49,54-tetraoxo-53-undecyl-3,12,15,18,21,24,27,30,33,36,39,42,45-tridecaoxa-8,48,53-triazatetrahexacontan-64-oic acid], in data set [1], the “% Release of degrader after 24 h PBS” value stood at 0.3% and the “Plasma stability (h) PBS” value is recorded as over 48 h. The “% Release of degrader after 24 h rat” value in data set [2] is given as 2%. In addition, in data set [3], the “Plasma stability (h) dog” value is listed as over 48 h and the “% Release of degrader after 24 h dog” value came out at 0.5%. In addition, in data set [4], the “% Release of degrader after 24 h mouse” value turned out to be 13.7% and the “Plasma stability (h) mouse” value came to 28.6 h. In addition, in data set [5], the “Plasma stability (h) cyno” value amounted to 26.6 h and the “% Release of degrader after 24 h cyno” value was found to be 0.4%.
On to `COc1ccc(C(=O)N2CCC3(CCN(CCc4ccc(-c5cc6c(-c7cc(F)cc(NC(=O)c8ccc(C(C)(C)OC(=O)CNC(=O)CCOCCOCCOCCOCCOCCOCCOCCOCCOCCOCCOCCOCCNC(C)=O)cc8F)c7C)ncnc6[nH]5)cc4)CC3)CC2)cc1N1CCC(=O)NC1=O` [Example A33, 2-(4-((3-(6-(4-(2-(9-(3-(2,4-Dioxotetrahydropyrimidin-1(2H)-yl)-4-methoxybenzoyl)-3,9-diazaspiro[5.5]undecan-3-yl)ethyl)phenyl)-7H-pyrrolo[2,3-d]pyrimidin-4-yl)-5-fluoro-2-methylphenyl)carbamoyl)-3-fluorophenyl)propan-2-yl (2-oxo-6,9,12,15,18,21,24,27,30,33,36,39-dodecaoxa-3-azadotetracontan-42-oyl)glycinate], for which, in data set [1], the “% Release of degrader after 24 h PBS” value is on record as 4.8% and the “Plasma stability (h) PBS” value is reported as over 48 h. Moreover, in data set [2], the “% Release of degrader after 24 h rat” value is 16.7% and the “Plasma stability (h) rat” value was determined as 2.3 h. For the same compound, in data set [3], the “Plasma stability (h) dog” value was found to be 32 h and the “% Release of degrader after 24 h dog” value came out at 10.4%. Moreover, in data set [4], the “% Release of degrader after 24 h mouse” value is 27.7% and the “Plasma stability (h) mouse” value came out at 5.1 h. Also, in data set [5], the “Plasma stability (h) cyno” value stood at 45.7 h and the “% Release of degrader after 24 h cyno” value was determined as 8.1%.
